Data published in article PMC6663880.

How the values were obtained:
[1] = target: Lys63-linked polyubiquitin (UniProt P0CG48); experiment: co-immunoprecipitation (anti-FLAG beads), immunoblot quantification; settings: HEK293 cells; n = 3; parent: est. 1.0; read off a plot
[2] = target: p97/VCP (valosin-containing protein) (UniProt P55072); experiment: as above; settings: HEK293 cells; n = 3; parent: est. 1.0; read off a plot
UniProt P55072, sequence (P55072 whole entry): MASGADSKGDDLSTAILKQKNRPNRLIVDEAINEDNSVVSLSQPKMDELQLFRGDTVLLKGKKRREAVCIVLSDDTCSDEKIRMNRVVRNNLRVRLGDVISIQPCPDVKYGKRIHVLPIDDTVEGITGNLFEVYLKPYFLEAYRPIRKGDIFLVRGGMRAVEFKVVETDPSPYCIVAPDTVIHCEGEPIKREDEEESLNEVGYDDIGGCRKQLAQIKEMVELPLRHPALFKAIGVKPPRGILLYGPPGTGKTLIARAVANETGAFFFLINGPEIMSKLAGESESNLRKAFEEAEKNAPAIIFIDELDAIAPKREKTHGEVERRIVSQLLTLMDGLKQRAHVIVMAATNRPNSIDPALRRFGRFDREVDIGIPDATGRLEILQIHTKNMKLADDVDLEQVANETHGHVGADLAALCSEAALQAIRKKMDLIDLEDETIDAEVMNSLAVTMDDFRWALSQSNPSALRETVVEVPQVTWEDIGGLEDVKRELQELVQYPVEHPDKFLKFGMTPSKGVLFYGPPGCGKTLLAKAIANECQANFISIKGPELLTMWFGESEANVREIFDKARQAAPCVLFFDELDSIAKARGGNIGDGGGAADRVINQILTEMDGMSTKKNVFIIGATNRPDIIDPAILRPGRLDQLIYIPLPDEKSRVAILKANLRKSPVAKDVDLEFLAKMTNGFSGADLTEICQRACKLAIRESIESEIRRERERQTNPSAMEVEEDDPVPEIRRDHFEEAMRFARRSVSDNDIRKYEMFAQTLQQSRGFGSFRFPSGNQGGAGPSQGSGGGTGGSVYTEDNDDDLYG

Q: How did the ratio to parent [1] turn out when “RHBDL4mycFLAG (from UniProt Q8TEB9) AllY>F” was run?
A: 0.36

Q: What about the ratio to parent [2] of the same substance?
A: 0.22
